Values of other authors, collected in patent US20110020225A1, “POROUS POLYMER PARTICLES IMMOBILIZED WITH CHARGED MOLECULES AND METHOD FOR PREPARING THE SAME” (KOREA RESEARCH INSTITUTE OF BIOSCIENCE AND BIOTECHNOLOGY, priority 2007, published 2011).

Conditions: negative charge at pH 7.4

B1: ovalbumin-fluorescent dye: ovalbumin-fluorescent dye (45 kDa, pI=4.6) having a negative charge at pH 7.4 (conjugate, UniProt P01012 2-386, looked up)
Ovalbumin: GSIGAASMEFCFDVFKELKVHHANENIFYCPIAIMSALAMVYLGAKDSTRTQINKVVRFDKLPGFGDSIEAQCGTSVNVHSSLRDILNQITKPNDVYSFSLASRLYAEERYPILPEYLQCVKELYRGGLEPINFQTAADQARELINSWVESQTNGIIRNVLQPSSVDSQTAMVLVNAIVFKGLWEKAFKDEDTQAMPFRVTEQESKPVQMMYQIGLFRVASMASEKMKILELPFASGTMSMLVLLPDEVSGLEQLESIINFEKLTEWTSSNVMEERKIKVYLPRMKMEEKYNLTSVLMAMGITDVFSSSANLSGISSAESLKISQAVHAAHAEINEAGREVVGSAEAGVDAASVSEEFRADHPFLFCIKHIATNAVLFFGRCVSP
modifications: fluorescent dye
For B1, the pI is given as 4.6.
